# Experimental data as given in US20260242448A1.
# Target: S protein of the SARS-CoV-2 prototype strain on pseudo-virus (SARS-CoV-2 prototype strain) (UniProt P0DTC2)
# Assay: cell-based or functional assay
# Chain of LY-CoV1404 (antibody) (VH): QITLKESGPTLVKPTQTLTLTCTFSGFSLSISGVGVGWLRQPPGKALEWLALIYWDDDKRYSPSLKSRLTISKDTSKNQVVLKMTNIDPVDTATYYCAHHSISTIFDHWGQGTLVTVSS
# Chain of LY-CoV1404 (antibody) (VL): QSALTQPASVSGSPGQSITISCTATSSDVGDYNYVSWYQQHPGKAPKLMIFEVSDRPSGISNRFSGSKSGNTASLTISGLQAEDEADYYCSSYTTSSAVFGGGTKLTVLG
substance,measurement,value
LY-CoV1404 (antibody),Neutralization activity (IC50) against pseudo-virus,1.19 ng/mL
